# Test results taken from the supplement of paper PMC7877785.
# ± gives the uncertainty stated by the source.
# Experiment: self-splicing fitness, log relative to wild type (ln ratio); higher = more splicing; Tetrahymena group I intron in knt gene, E. coli kanamycin selection, DiMSum; sequences stand for … in CUCUCU…GGAGGGAAAAGUUAUCAGGCAUGCACCUGGUAGCUAGUCUUUAAACCAAUAGAUUGCAUCGGUUUAAAAGGCAAGACCGUCAAAUUGCGGGAAAGGGGUCAACAGCCGUUCAGUACCAAGUCUCAGGGGAAACUUUGAGAUGGCCUUGCAAAGGGUAUGGUAAUAAGCUGACGGACAUGGUCCUAACCACGCAGCCAAGUCCUAAGUCAACAGAUCUUCUGUUGAUAUGGAUGCAGUUCACAGACUAAAUGUCGGUCGGGGAAGAUGUAUUCUUCUCAUAAGAUAUAGUCGGACCUCUCCUUAAUGGGAGCUAGCGGAUGAAGUGAUGCAACACUGGAGCCGCUGGGAACUAAUUUGUAUGCGAAAGUAUAUUGAUUAGUUUUGGAGUACUCGUGGUCG
# Procedure, shortened: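 A randomised library covering all eight P1ex-region intron nucleotides was built with the intron in the knt kanamycin-resistance gene on pET-22b(+) and held in E. coli BL21(DE3). Cells were grown overnight at 37°C or 30°C on LB agar, with or without 25 μg/mL kanamycin, plus 100 μg/mL carbenicillin, 50 μM IPTG and 0.2% rhamnose, and pooled colonies were amplicon-sequenced on an Illumina HiSeq 2500. DiMSum fitness is the error-weighted combination of wild-type-normalised replicate fold changes, kanamycin versus none.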
Sequence,self-splicing fitness (ln) (30 °C),self-splicing fitness (ln) (37 °C)
UGAGAGCAAUAUUACGAAUG,-2.97 ± 0.36,-1.09 ± 0.46
UGAGAGCAAUAUUACGAAUU,-3.84 ± 0.16,-2.79 ± 0.17
UGAGAGCAAUAUUACGACAU,-3.847 ± 0.037,-2.82 ± 0.048
UGAGAGCAAUAUUACGAGCC,-1.9 ± 0.33,
UGAGAGCAAUAUUACGAGCU,,-2.53 ± 0.49
UGAGAGCAAUAUUACGAUAG,-3.19 ± 0.38,-2.11 ± 0.26
UGAGAGCAAUAUUACGAUGG,-3.59 ± 0.23,-2.72 ± 0.2
UGAGAGCAAUAUUACGAUUG,-2.57 ± 0.27,-1.14 ± 0.27
UGAGAGCAAUAUUACGCUGG,-3.87 ± 0.22,-2.67 ± 0.25
UGAGAGCAAUAUUACGGAAG,-3.67 ± 0.23,-2.2 ± 0.31
UGAGAGCAAUAUUACGGUUA,-1.14 ± 0.23,-1.11 ± 0.21
UGAGAGCAAUAUUACGGUUU,-2.16 ± 0.4,
UGAGAGCAAUAUUACGUAGG,-2.48 ± 0.35,-1.12 ± 0.41
UGAGAGCAAUAUUACGUCUG,-2.76 ± 0.42,-1.88 ± 0.33
UGAGAGCAAUAUUACGUGCC,,-2.99 ± 0.43
UGAGAGCAAUAUUACGUGGA,-3.18 ± 0.28,-2.95 ± 0.47
UGAGAGCAAUAUUACGUUAC,,-1.79 ± 0.3
UGAGAGCAAUAUUACGUUCA,-0.924 ± 0.12,-0.794 ± 0.12
UGAGAGCAAUAUUACGUUUA,-3.46 ± 0.39,
UGAUAGCAAUAUUACGACGG,-1.4 ± 0.19,0.124 ± 0.18
UGAUAGCAAUAUUACGACGU,-2.71 ± 0.24,-1.17 ± 0.37
UGAUAGCAAUAUUACGAGCU,-1.44 ± 0.15,-0.828 ± 0.17
UGAUAGCAAUAUUACGAUCU,0.499 ± 0.12,0.105 ± 0.16
UGAUAGCAAUAUUACGAUGA,-0.925 ± 0.15,-0.791 ± 0.12
UGAUAGCAAUAUUACGCCAG,-1.59 ± 0.23,-0.994 ± 0.49
UGAUAGCAAUAUUACGCCGA,-2.91 ± 0.32,-1.28 ± 0.18

Sequence,self-splicing fitness (ln) (30 °C),self-splicing fitness (ln) (37 °C)
UGAUAGCAAUAUUACGCGCC,-1.82 ± 0.36,0.00337 ± 0.21
UGAUAGCAAUAUUACGCGUA,-1.74 ± 0.13,-0.96 ± 0.13
UGAUAGCAAUAUUACGGAAG,-1.99 ± 0.14,-1.64 ± 0.21
UGAUAGCAAUAUUACGGGGA,-3.16 ± 0.39,-1.8 ± 0.26
UGAUAGCAAUAUUACGGGUA,-1.74 ± 0.12,-1.81 ± 0.14
UGAUAGCAAUAUUACGGUCG,-0.332 ± 0.098,-0.477 ± 0.1
UGAUAGCAAUAUUACGUAUG,-1.1 ± 0.16,-0.567 ± 0.16
UGAUAGCAAUAUUACGUUGA,-3.42 ± 0.19,-1.91 ± 0.14
UGAUAGCAAUAUUACGUUGU,-4.45 ± 0.29,-2.98 ± 0.21
UGCAAGCAAUAUUACGAAAA,-2.32 ± 0.28,-1.64 ± 0.17
UGCAAGCAAUAUUACGAAGC,,-1.87 ± 0.4
UGCAAGCAAUAUUACGACUC,-2.66 ± 0.18,-1.56 ± 0.17
UGCAAGCAAUAUUACGAGAC,-4.03 ± 0.46,-2.05 ± 0.34
UGCAAGCAAUAUUACGAGCA,-2.28 ± 0.15,-1.39 ± 0.12
UGCAAGCAAUAUUACGAGGA,-3.28 ± 0.26,-0.992 ± 0.14
UGCAAGCAAUAUUACGAUCC,-1.21 ± 0.14,-0.955 ± 0.2
UGCAAGCAAUAUUACGAUCU,-0.477 ± 0.091,-0.822 ± 0.1
UGCAAGCAAUAUUACGAUGC,-3.55 ± 0.3,
UGCAAGCAAUAUUACGCAGA,-1.92 ± 0.16,-1.75 ± 0.15
UGCAAGCAAUAUUACGCCAC,,-3.58 ± 0.42
UGCAAGCAAUAUUACGCCAG,-2.88 ± 0.19,-1.9 ± 0.26
UGCAAGCAAUAUUACGCCUA,0.231 ± 0.073,0.0781 ± 0.075
UGCAAGCAAUAUUACGCGAC,-3.46 ± 0.19,-2.65 ± 0.23
UGCAAGCAAUAUUACGCGCG,-1.84 ± 0.13,-0.733 ± 0.17
UGCAAGCAAUAUUACGCUGC,-3.62 ± 0.29,-2.4 ± 0.3
UGCAAGCAAUAUUACGCUUU,-3.45 ± 0.21,-1.85 ± 0.2

Sequence,self-splicing fitness (ln) (30 °C),self-splicing fitness (ln) (37 °C)
UGCAAGCAAUAUUACGGCAA,0.111 ± 0.12,-0.447 ± 0.12
UGCAAGCAAUAUUACGGCAC,-3.59 ± 0.4,-3.28 ± 0.33
UGCAAGCAAUAUUACGGUCU,-0.647 ± 0.07,0.283 ± 0.082
UGCAAGCAAUAUUACGUAGU,-3.83 ± 0.18,-2.42 ± 0.17
UGCAAGCAAUAUUACGUAUC,-3.22 ± 0.2,-1.14 ± 0.15
UGCAAGCAAUAUUACGUCGU,-3.58 ± 0.22,-1.81 ± 0.17
UGCAAGCAAUAUUACGUUAA,-2.27 ± 0.13,-0.494 ± 0.1
UGCAAGCAAUAUUACGUUUA,-1.49 ± 0.076,-0.234 ± 0.072
UGCCAGCAAUAUUACGAAGC,-3.74 ± 0.22,-1.91 ± 0.18
UGCCAGCAAUAUUACGAAGU,-2.88 ± 0.22,-2.97 ± 0.23
UGCCAGCAAUAUUACGAAUU,-3.68 ± 0.26,-3.3 ± 0.24
UGCCAGCAAUAUUACGACUA,-0.442 ± 0.1,-0.0497 ± 0.1
UGCCAGCAAUAUUACGCACU,-2.03 ± 0.069,-0.315 ± 0.066
UGCCAGCAAUAUUACGCCCG,-0.317 ± 0.12,0.404 ± 0.14
UGCCAGCAAUAUUACGCCUA,-0.546 ± 0.074,0.0605 ± 0.087
UGCCAGCAAUAUUACGCGAC,-2.62 ± 0.3,-0.608 ± 0.23
UGCCAGCAAUAUUACGCGAU,-2.42 ± 0.17,-1.88 ± 0.23
UGCCAGCAAUAUUACGCGUU,-1.67 ± 0.069,-0.989 ± 0.082
UGCCAGCAAUAUUACGGAAG,-2.55 ± 0.073,-1.42 ± 0.071
UGCCAGCAAUAUUACGGAGU,-4.74 ± 0.27,-1.34 ± 0.13
UGCCAGCAAUAUUACGGAUC,-3.04 ± 0.22,-1.13 ± 0.17
UGCCAGCAAUAUUACGGCUU,-0.887 ± 0.098,-0.247 ± 0.11
UGCCAGCAAUAUUACGGGCC,-3.23 ± 0.21,-1.73 ± 0.2
UGCCAGCAAUAUUACGGUUC,-3.35 ± 0.2,-1.81 ± 0.14
UGCCAGCAAUAUUACGGUUU,-0.471 ± 0.075,-0.237 ± 0.096
UGCCAGCAAUAUUACGUAGG,-3.34 ± 0.25,-0.145 ± 0.17
